According to article PMC8632296 (mAbs, 2021):
Blank lines part the entries; values can stand above or below the binder they belong to.

How the values were obtained:
[1] = biological target: recombinant human carbonic anhydrase IX extracellular domain, monomer (human, UniProt Q16790); assay: SPR
[2] = biological target: human carbonic anhydrase IX on cells and in tumour tissue (Homo sapiens, UniProt Q16790); assay: plate-based cell binding assay
[3] = biological target: recombinant human carbonic anhydrase IX extracellular domain, dimer (Homo sapiens, UniProt Q16790); assay: SPR

- Kd [1]: 34.5 nM
- koff [1]: 0.0524 s⁻¹
- kon [1]: 1.52e+06 M⁻¹ s⁻¹
- EC50 [2]: 0.221 nM
- Kd [3]: 0.032 nM
- koff [3]: 0.000115 s⁻¹
- kon [3]: 3.58e+06 M⁻¹ s⁻¹
B1: c12H8, recombinant chimeric anti-hCAIX antibody (human IgG1) (antibody, V domains shown)
VH: QIQLVQSGPELKKPGETVKISCKASGYTFTNYGMNWVQQAPGKGLKWMGWINTYTGEPTYADDFKGRFAFSLETSASTAYLQINNLKNEDMATYFCARGGIATPTSYWGQGTTLTVSS
VL: not shown

- Kd [1]: 0.826 nM
- koff [1]: 0.00019 s⁻¹
- kon [1]: 229000 M⁻¹ s⁻¹
- EC50 [2]: 1.16 nM
- Kd [3]: 0.189 nM
- koff [3]: 7.68e-05 s⁻¹
- kon [3]: 406000 M⁻¹ s⁻¹
B2: m4A2, recombinant murine anti-hCAIX antibody (mouse IgG2a) (antibody, V domains shown)
VH: EVKLEESGGGLVQPGRSMKLSCVASGFTFSYYWMDWVRQSPEKGLEWVAEIRLKSDNYATHYAESVKGRFTISRDDSKSSVYLQMNNLRAEDTGIYYCTRAPHYYGYFDYWGQGTTLTVSS
VL: QIVLTQSPAVMSAFPGEKVTMTCSASSSVGYMHWYQQKAGSSPRLLIYDTSNLSSGVPARCSGSGSGTSYSLTISRMEAEDAATYYCQQWRSYPPTFGGGTKLEIK

- EC50 [2]: 21.8 nM
B3: m9B6, recombinant murine anti-hCAIX antibody (mouse IgG2a) (antibody, V domains shown)
VH: QVQLQQPGAELVKPGASVKLSCKASGYIFTTKWINWVKQRPGQGLEWIGNIYPGSSNTYYNEKFKNKATLTVDKSSNTAHLQLSSLTSEDSAVYYCARGIANWGQGTPVTVSA
VL: DIVLTQSPSSLAVSLGQRATISCKASQSVDYDGNSYMNWFQQKPGQPPKLLIYEASSLESGIPARISGSGSGTDFTLNIHPVEEEDAATYYCQQSYEGPYTFGGGTKLEIK
